{
  "source": "patent US9987329B2",
  "about": "“Methods for treating peripheral nerve damage” (Cornell University, priority 2014, dated 2018)",
  "key": {"[1]": {"system": "corneal nerves of thy1-YFP mice", "assay": "Corneal micropocket assay (VEGF-B releasing pellet)", "type": "in vivo, mouse", "protocol": "A sucralfate/hydron pellet impregnated with VEGF-B (100 ng/pellet) or vehicle was implanted into a corneal micropocket in anesthetized thy1-YFP mice subjected to a partial lamellar incision parallel to the limbus. Rogers, M. S. et al., The mouse cornea micropocket angiogenesis assay, Nature protocols 2, 2545-2550 (2007). Mice were allowed to recover for a day, after which a subset received a corneal debridement that removed a circular 2-mm region of central epithelium and the underlying sub-basal nerves. The corneas were harvested 3 days later, fixed in 4% paraformaldehyde (PFA) for 30 minutes, mounted in Vectashield medium (Vector Labs H1000) as whole mounts, and nerves imaged using the AxioObserver system as described above.\nHarvested corneas from thy1-YFP mice were fixed in 4% PFA for 1 hr and then stained with 4,6-diamidino-2-phenylindole (DAPI) to label nuclei before mounting. The YFP fluorescent nerves were imaged with a fluorescence microscope at the site of pellet implantation and at a site 180 degrees opposite to the pellet. Images were analyzed using Neurolucida. […] wild type and Vegf-b^−/− mouse corneas were flat mounted and fixed as described. Pan, Z., Fukuoka et al., FASEB J. 27, 2756-2767 (2013). Samples were stained with rabbit anti-β3 tubulin antibody (Abcam 18207) overnight at 4° C., followed by alexaFluor568-conjugated goat anti-rabbit IgG (Life Technologies A11011) at room temperature for 1 hr and counter-stained with DAPI."}, "[2]": {"system": "trigeminal ganglion (TG) neuronal cells", "assay": "Trigeminal ganglion neuronal growth assay", "type": "cell-based, mouse", "protocol": "Trigeminal ganglion (TG) neuronal cells were obtained and cultured as described previously. Pan, Z., Fukuoka et al., FASEB J. 27, 2756-2767 (2013). To evaluate the effect of VEGF-B on neuronal growth, TG neuronal cells were treated with 10-100 ng/ml recombinant mouse VEGF-B^186 (R&D 767-VE-010). The VEGF-B treatments were replenished every other day. Neurite formation and growth was followed up to 3 days. […] VEGF receptors were inhibited by using neutralizing antibodies against VEGFR1 (R&D AF471), VEGFR2 (R&D MAB4431) and Neuropilin 1 (NRP1) (R&D MAB566). TG cells were incubated in a dose dependent manner with anti-VEGFR1, anti-VEGFR2 or anti-NRP1 for 1 hour prior to the addition of 50 ng/ml VEGF-B. The tyrosine kinase domains of VEGFR2 were inhibited with specific inhibitors by incubating TG neuronal cells with 10 μM SU 1498 (Sigma T4192) or 5 nM Ki 8751 (Sigma K1265) for 1 hr before adding 50 ng/ml VEGF-B. All neurite growth was imaged with an AxioObserver Z1 fluorescence microscope in the YFP channel attached to an AxioCam HRm digital camera (Zeiss) operated by AxioVision 4.0 software. Images were analyzed using Neurolucida 9 (MBF Bioscience) a quantitative nerve tracing software."}, "[3]": {"system": "corneal nerves of Thy-1-YFP mice", "assay": "Corneal nerve regeneration with combinations of VEGF-A and VEGF-B", "type": "in vivo, mouse", "details": "ligand administered separately, two weeks post-injury (FIG. 14)", "protocol": "Thy-1-YFP mice were subjected to cornea epithelium debridement to ablate the superficial nerve endings that innervate the cornea Immediately after injury, the mice were treated with different combinations of VEGF-A and VEGF-B. As shown, combinations of VEGF ligands induce greater nerve regeneration in vivo.\nThe observed effects were also recapitulated in vivo. Thy-1-YFP neurofluorescent mice were used to induce a corneal epithelium injury that results in ablation of the superficial nerve endings of the cornea. The mice were then treated with different combinations of VEGF-A and VEGF-B, and nerve regeneration was analyzed after two weeks post-injury."}, "[4]": {"system": "corneal epithelium of C57BL/6 and Vegf-b−/− mice", "assay": "Corneal epithelial wound healing after debridement (fluorescein staining)", "type": "in vivo, mouse", "details": "0.5 ng subconjunctival, 48 hours (FIG. 6A)", "protocol": "Wild type C57BL/6 and Vegf-b^−/− mice were subject to corneal epithelial debridement as described above or left intact. A 5 ul volume containing 0.5 ng VEGF-B^186 in PBS was injected subconjunctivally, at the lateral temporal bulbar conjunctiva, using a 10-μl micro-syringe (Hamilton Co). Equal volume of 0.1% bovine serum albumin (BSA) was used in control mice. The recovery of the corneal epithelial injury was imaged at 24, 40 and 48 hours by applying 1% fluorescein solution to the corneal surface and wounds photographed under diffuse cobalt blue light attached to a slit lamp bio-microscope (Nikon FS-3, Nikon) connected to a digital camera (Canon EOS 60D). The corneal epithelial defect areas were quantified by analyzing the images with Photoshop CS4 (Adobe). Corneas were harvested after one week for immunodetection of nerves. Possible growth of blood vessel into the cornea was monitored by slit lamp examination."}, "[5]": {"system": "corneal sensation of C57BL/6 and Vegf-b−/− mice", "assay": "Corneal nerve sensation testing (von Frey Hairs)", "type": "in vivo, mouse", "protocol": "The degree of recovered nerve sensation in the injured cornea was evaluated using calibrated von Frey Hairs (North Coast Medicals). In this method the center of the cornea of un-anesthetized mouse was touched with thin filaments of ascending stiffness (0.008 to 1.4 g) until the hairs buckled and a blink response was elicited. C57BL/6 wild type and Vegf-b^−/− mice subjected to corneal epithelial debridement and receiving subconjuntival injection of VEGF-B, as well as their respective controls, were evaluated to determine the minimal force (g) needed for a blink response. Eight mice were tested in each group in three individual experiments."}, "[6]": {"system": "TG neuronal cells", "assay": "Cell viability assay (Live/Dead) of TG neuronal cells", "type": "cell-based, mouse", "details": "50 ng/ml single dose on first day of culture without serum; day 2 and 3", "protocol": "The effect of VEGF-B on the survival of TG neuronal cells was evaluated with the Live/Dead Viability/Cytotoxicity kit (Invitrogen), as described in Pan, Z., Fukuoka et al., FASEB J. 27, 2756-2767 (2013)."}, "[7]": {"system": "trigeminal ganglion (TG) neuronal cells", "assay": "Trigeminal ganglion neuronal growth assay", "type": "cell-based, mouse", "details": "VEGF-B on three consecutive days, culture day 6 (FIG. 11)"}, "[8]": {"details": "50 ng/ml each, three days in culture (FIG. 2B)"}, "[9]": {"details": "50 ng/ml, three days in culture (FIG. 2B)"}},
  "data": [
    {"molecule": "recombinant mouse VEGF-B^186 (protein, listed as Homo sapiens, vascular endothelial growth factor B; recombinant mouse VEGF-B186 (R&D 767-VE-010)) MSPLLRRLLLAALLQLAPAQAPVSQPDAPGHQRKVVSWIDVYTRATCQPREVVVPLTVELMGTVAKQLVPSCVTVQRCGGCCPDDGLECVPTGQHQVRMQILMIRYPSSQLGEMSLEEHSQCECRPKKKDSAVKPDRAATPHHRPQPRSVPGWDSAPGAPSPADITHPTPAPGPSAHAAPSTTSALTPGPAAAAADAAASSVAKGGA", "values": [
      {"measurement": "innervation at sites of injury", "setting": "[1]; 100 ng/pellet plus superficial corneal debridement, versus vehicle, 3 days", "result": "significantly increased innervation throughout sites of injury"},
      {"measurement": "corneal nerve density or patterning", "setting": "[1]; 100 ng/pellet, absence of injury, 3 days", "result": "no alteration of corneal nerve density or patterning"},
      {"measurement": "nerve density at the site of pellet implantation", "setting": "[1]; 100 ng/pellet, limited (focal) injury, versus vehicle", "result": "significant increased nerve density"},
      {"measurement": "length of neurites compared with untreated controls", "setting": "[2]; 50 ng/ml VEGF-B, 3 days in culture (FIG. 1)", "result": "almost four folds greater"},
      {"measurement": "neurite elongation compared with VEGF-A treatment", "setting": "[2]; [8]", "result": "more than 2 folds"},
      {"measurement": "number of branching nodes compared with VEGF-A treated neurons", "setting": "[2]; [8]", "result": "more than 4 folds"},
      {"measurement": "pattern of neurite growth (elongation and branching)", "setting": "[2]; 50 ng/ml, three days in culture (FIG. 2A)", "result": "extensive elongation and branching of the neurites"},
      {"measurement": "neurite elongation compared with untreated control", "setting": "[2]; [9]", "result": "five folds higher"},
      {"measurement": "number of branching nodes compared with untreated control", "setting": "[2]; [9]", "result": "seven fold higher"},
      {"measurement": "dose dependence of neurite growth induction", "setting": "[2]; 10-100 ng/ml VEGF-B (FIG. 7)", "result": "dose-dependent"},
      {"measurement": "most potent dose for inducing neurite elongation and branching", "setting": "[2]; increasing concentrations of VEGF-B, 3 days in culture (FIG. 7)", "result": 50, "unit": "ng/mL"},
      {"measurement": "nerve regeneration", "setting": "[3]", "result": "induced greater nerve regeneration"},
      {"measurement": "injured epithelial area compared with untreated controls", "setting": "[4]; Vegf-b−/− mice", "result": "only half the injured area"},
      {"measurement": "epithelial healing", "setting": "[4]; wild type mice", "result": "almost complete healing"},
      {"measurement": "corneal sensation compared with untreated Vegf-b−/− mice", "setting": "[5]; Vegf-b−/− mice, 2 weeks post-injury (FIG. 4F)", "result": "significantly improved sensation"},
      {"measurement": "functional recovery of corneal sensation", "setting": "[5]; wild type and Vegf-b−/− mice, 7 days of treatment (FIG. 4E)", "result": "began to improve"},
      {"measurement": "corneal sensation", "setting": "[5]; wild-type mice, 2 weeks post-injury (FIG. 4F)", "result": "completely restored"},
      {"measurement": "cells surviving (neuronal viability)", "setting": "[6]", "result": 50, "unit": "%"},
      {"measurement": "dendrite length and branching", "setting": "[7]", "result": "longer dendrites and more branches"}
    ]}
  ]
}
